Bridges are numbered along the chain shown (N, C = ends). Where no end group is shown, it is not given here. [ ]: non-standard residue; d: D form. fluorescein = fluorescein label; Ahx = NCCCCCC(=O)O
What was measured:
pig serum albumin = pig serum albumin (Pig, UniProt P08835 25-607); test: fluorescence anisotropy; 3 mM phosphate, pH 6.2, 0 M NaCl
rabbit serum albumin = rabbit serum albumin (Rabbit, UniProt P49065 25-608); test: as above
chicken ovalbumin [1] = biological target: T1, chicken ovalbumin (Chicken, UniProt P01012 2-386); test: fluorescence anisotropy; PBS, pH 7.4, 0.14 M NaCl; negative control
T1 construct: Negative control; also called Chicken (egg)
T1 sequence (looked up): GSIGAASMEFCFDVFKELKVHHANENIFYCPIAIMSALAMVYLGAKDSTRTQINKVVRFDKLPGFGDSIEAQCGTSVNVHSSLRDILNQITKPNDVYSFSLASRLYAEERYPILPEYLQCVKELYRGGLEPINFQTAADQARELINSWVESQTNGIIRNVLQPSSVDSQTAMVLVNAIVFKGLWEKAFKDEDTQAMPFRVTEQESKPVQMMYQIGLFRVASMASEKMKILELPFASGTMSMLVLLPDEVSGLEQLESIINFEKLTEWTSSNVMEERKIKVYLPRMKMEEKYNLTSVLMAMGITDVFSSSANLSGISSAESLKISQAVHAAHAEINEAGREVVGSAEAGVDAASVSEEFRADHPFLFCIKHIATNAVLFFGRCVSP

chicken ovalbumin [2] = biological target: T1, chicken ovalbumin; test: fluorescence anisotropy; 3 mM phosphate, pH 6.2, 0 M NaCl; negative control
[3] = biological target: T2, human serum albumin (HSA) (human, UniProt P02768 25-609); test: fluoresceinated peptide; 3 mM phosphate buffer, pH 6.2, no salt
T2 construct: also called caprylate-biotinylated-HSA
Procedure: (§1) Affinity determinations were made by first labeling polypeptides on the C-terminal end with NHS-fluorescein. Fluorescence anisotropy measurements were performed in 384-well microplates in a volume of 10 μl in binding buffer using a Tecan Polarion fluorescence polarization plate reader. The concentration of fluorescein labeled peptide was held constant (20 nM), and the concentration of HSA was varied. For pH 6.2, 7.1, and 7.4 binding conditions, a 3 mM phosphate, 0.01% Tween-20 buffer was used. For pH 9.1 binding conditions, a 3 mM sodium bicarbonate buffer, 0.01% Tween-20 nonionic detergent buffer was used. Once NaCl was added to any of these buffers, their pH was adjusted again to achieve the original pH. The binding mixtures were equilibrated for 10 minutes in the microplate at 30° C. prior to performing the measurement. The observed change in anisotropy was fit to the equation below via nonlinear regression to obtain the apparent KD. This equation assumes that the peptide and HSA form a reversible complex with 1:1 stoichiometry.
(§2) Each of the polypeptides was fluoresceinated and tested for binding against an immobilized HSA target as described above.

[4] = biological target: T2, human serum albumin (HSA); test: fluoresceinated peptide; PBS
Procedure: as §1, §2

[5] = biological target: T2, human serum albumin (HSA); test: fluorescence anisotropy; pH 6.2, 0.14 M NaCl, no caprylate
Procedure: as §1

[6] = biological target: T2, human serum albumin (HSA); test: fluorescence anisotropy; pH 7.4, 0.14 M NaCl, 0.1% caprylate
Procedure: as §1
Once all the positive phage isolates were sequenced, peptides corresponding to the display peptide were synthesized. A small amount of constant phage sequence surrounding each varied amino acid sequence region was retained and either a -GGGK-NH₂ (SEQ ID NO: 24) amino acid sequence or -X-K-NH₂ C-terminal tail was added to each peptide, where X is 6-aminohexanoic acid and K-NH₂ is an amidated terminal lysine residue. The constant phage sequence was retained because these residues can often play a role in target binding. To determine its affinity for HSA , each peptide was labeled with fluorescein on the C-terminal lysine side chain.

[7] = biological target: T2, human serum albumin (HSA); test: fluorescence anisotropy; pH 7.4, 0.14 M NaCl, no caprylate
Procedure: as §1

[8] = biological target: T2, human serum albumin (HSA); test: fluorescence anisotropy; pH 9.1, 0.14 M NaCl (as the head marks it), no caprylate
Procedure: as §1

[9] = biological target: T2, human serum albumin (HSA); test: phage ELISA on caprylate-biotinylated HSA held on streptavidin wells; TN12/1 solution-capture selection
[10] = biological target: T2, human serum albumin (HSA); test: fluorescence anisotropy, truncated peptides
Procedure: as §1

[11] = biological target: T2, human serum albumin (HSA); test: fluorescence anisotropy; buffer not named in Table 2

pig serum albumin, sequence (P08835 25-607 limits assumed): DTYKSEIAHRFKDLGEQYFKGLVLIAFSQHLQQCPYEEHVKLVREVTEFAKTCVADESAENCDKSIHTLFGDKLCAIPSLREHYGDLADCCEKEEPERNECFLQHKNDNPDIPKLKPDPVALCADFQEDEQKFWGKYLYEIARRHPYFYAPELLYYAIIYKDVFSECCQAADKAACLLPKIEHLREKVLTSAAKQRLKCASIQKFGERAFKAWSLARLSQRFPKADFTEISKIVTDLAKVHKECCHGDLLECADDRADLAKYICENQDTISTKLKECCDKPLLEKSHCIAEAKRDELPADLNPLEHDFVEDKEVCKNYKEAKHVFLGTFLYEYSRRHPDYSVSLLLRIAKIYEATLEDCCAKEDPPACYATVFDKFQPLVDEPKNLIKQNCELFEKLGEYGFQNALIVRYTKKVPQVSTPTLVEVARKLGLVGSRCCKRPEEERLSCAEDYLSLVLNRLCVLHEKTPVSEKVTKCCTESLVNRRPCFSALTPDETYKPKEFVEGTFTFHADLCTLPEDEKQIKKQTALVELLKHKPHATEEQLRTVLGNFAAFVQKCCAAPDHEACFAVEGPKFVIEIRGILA
rabbit serum albumin, sequence (P49065 25-608 limits assumed): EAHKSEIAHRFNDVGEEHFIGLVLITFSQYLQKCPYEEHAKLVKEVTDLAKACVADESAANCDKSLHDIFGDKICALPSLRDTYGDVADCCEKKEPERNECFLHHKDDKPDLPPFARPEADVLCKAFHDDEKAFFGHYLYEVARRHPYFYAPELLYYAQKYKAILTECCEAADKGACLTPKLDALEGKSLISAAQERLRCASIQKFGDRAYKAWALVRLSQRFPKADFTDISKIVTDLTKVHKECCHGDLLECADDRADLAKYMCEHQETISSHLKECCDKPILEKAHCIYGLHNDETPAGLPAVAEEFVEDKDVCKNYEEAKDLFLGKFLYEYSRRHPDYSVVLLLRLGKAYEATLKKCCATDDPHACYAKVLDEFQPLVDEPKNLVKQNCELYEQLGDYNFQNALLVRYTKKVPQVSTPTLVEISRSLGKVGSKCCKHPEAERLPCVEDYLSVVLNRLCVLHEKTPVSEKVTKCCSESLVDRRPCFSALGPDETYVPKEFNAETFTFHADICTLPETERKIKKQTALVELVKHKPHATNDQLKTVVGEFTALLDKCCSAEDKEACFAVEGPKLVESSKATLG

Q: Which results are given for Ac-AEGTGDFWFCDRIAWYPQHLCEFLDPEGGGK-NH2 (not fully specified; cysteine pairing not given here) [DX-236, Ac-AEGTGDFWFCDRIAWYPQHLCEFLDPEGGGK-NH2]?
A: Kd (pig serum albumin): 0.5 µM; Kd (rabbit serum albumin): 0.5 µM; Kd (chicken ovalbumin [1]): > 200 µM; Kd (chicken ovalbumin [2]): > 200 µM

Q: With Ac-AEGTGAFWFCDRIAWYPQHLCEFLDPEGGGK-NH2 (cysteine pairing not given here; also: fluoresceinated, site not given here) [alanine mutant of DX-236, Ac-AEGTGAFWFCDRIAWYPQHLCEFLDPEGGGK-NH2] as the binder, how does the Kd [3] read?
A: Its Kd is 5.1 µM.

Q: Which Kd [3] does the source give for Ac-AEGTGDAWFCDRIAWYPQHLCEFLDPEGGGK-NH2 (cysteine pairing not given here; also: fluoresceinated, site not given here) [alanine mutant of DX-236, Ac-AEGTGDAWFCDRIAWYPQHLCEFLDPEGGGK-NH2] here?
A: Its Kd is 5.1 µM.

Q: With Ac-AEGTGDFAFCDRIAWYPQHLCEFLDPEGGGK-NH2 (cysteine pairing not given here; also: fluoresceinated, site not given here) [alanine mutant of DX-236, Ac-AEGTGDFAFCDRIAWYPQHLCEFLDPEGGGK-NH2] as the binder, how does the Kd [3] read?
A: The Kd was 2.3 µM.

Q: How did the Kd [4] turn out when Ac-AEGTGDFWFCARIAWYPQHLCEFLDPEGGGK-NH2 (cysteine pairing not given here; also: fluoresceinated, site not given here) [alanine mutant of DX-236, Ac-AEGTGDFWFCARIAWYPQHLCEFLDPEGGGK-NH2] was run?
A: The Kd was 5 µM.

Q: How did the Kd [3] turn out when Ac-AEGTGDFWFCDAIAWYPQHLCEFLDPEGGGK-NH2 (cysteine pairing not given here; also: fluoresceinated, site not given here) [alanine mutant of DX-236, Ac-AEGTGDFWFCDAIAWYPQHLCEFLDPEGGGK-NH2] was run?
A: Its Kd is 1.5 µM.

Q: Ac-AEGTGDFWFCDRIAAYPQHLCEFLDPEGGGK-NH2 (cysteine pairing not given here; also: fluoresceinated, site not given here) [alanine mutant of DX-236, Ac-AEGTGDFWFCDRIAAYPQHLCEFLDPEGGGK-NH2] was tested. Which Kd [3] did it give?
A: The Kd was 1.4 µM.

Q: How did the Kd [3] turn out when Ac-AEGTGDFWFCDRIAWAPQHLCEFLDPEGGGK-NH2 (cysteine pairing not given here; also: fluoresceinated, site not given here) [alanine mutant of DX-236, Ac-AEGTGDFWFCDRIAWAPQHLCEFLDPEGGGK-NH2] was run?
A: Its Kd is 1.4 µM.

Q: How did the Kd [3] turn out when Ac-AEGTGDFWFCDRIAWYAQHLCEFLDPEGGGK-NH2 (cysteine pairing not given here; also: fluoresceinated, site not given here) [alanine mutant of DX-236, Ac-AEGTGDFWFCDRIAWYAQHLCEFLDPEGGGK-NH2] was run?
A: The Kd was 1.3 µM.

Q: How did the Kd [3] turn out when Ac-AEGTGDFWFCDRIAWYPAHLCEFLDPEGGGK-NH2 (cysteine pairing not given here; also: fluoresceinated, site not given here) [alanine mutant of DX-236, Ac-AEGTGDFWFCDRIAWYPAHLCEFLDPEGGGK-NH2] was run?
A: The Kd was 2.2 µM.

B1: alanine mutant of DX-236, Ac-AEGTGDFWFCDRIAWYPQHACEFLDPEGGGK-NH2 (peptide)
peptide: Ac-AEGTGDFWFCDRIAWYPQHACEFLDPEGGGK-NH2
modifications: cysteine pairing not given here; also: fluorescein label, position not given here
Q: Which Kd [3] does the source give for B1 here?
A: Its Kd is 2 µM.

Q: Ac-AEGTGSHVGCNNALCMQYAPE[Ahx]K(fluorescein)-NH2 (disulfide 10-15) [DX-296, Ac-AEGTGSHVGCNNALCMQYAPE-X-K-NH2] was tested. Which Kd [5] did it give?
A: The Kd was over 100 µM.

Q: What about the Kd [6] of the same binder?
A: Its Kd is over 200 µM.

Q: Which results are given for Ac-AEGTGSWKVCDHFFCLSPAPE[Ahx]K(fluorescein)-NH2 (disulfide 10-15) [DX-297, Ac-AEGTGSWKVCDHFFCLSPAPE-X-K-NH2]?
A: Kd [5]: > 200 µM; Kd [7]: > 200 µM; Kd [6]: > 200 µM

Q: Which results are given for Ac-AEGTGSNHGCWHFSCIWDAPE[Ahx]K(fluorescein)-NH2 (disulfide 10-15) [DX-298, Ac-AEGTGSNHGCWHFSCIWDAPE-X-K-NH2]?
A: Kd [5]: > 200 µM; Kd [8]: > 200 µM

Q: For Ac-AEGTGDDWDCVTRWANRDQQCWGPDPE[Ahx]K(fluorescein)-NH2 (disulfide 10-21) [DX-313, Ac-AEGTGDDWDCVTRWANRDQQCWGPDPE-X-K-NH2], which Kd [5] is on record?
A: The Kd was 80 µM.

Q: What about the Kd [7] of the same binder?
A: The Kd was over 200 µM.

Q: What about the Kd [8] of the same binder?
A: Its Kd is 90 µM.

B2: DX-315, Ac-AEGTGDDWDCVTRWANRDQQCWALDPE-X-K-NH2 (peptide)
peptide: Ac-AEGTGDDWDCVTRWANRDQQCWALDPE[Ahx]K(fluorescein)-NH2
modifications: not fully specified (bridges); printed as Ac-AEGTGDDWDCVTRWANRDQQCWALDPE-X-K-NH2; cysteine pairing not given here
Q: What does the source list for B2?
A: Kd [5]: > 200 µM; Kd [6]: > 100 µM

Q: What does the source list for Ac-AEGTGDDWQCVKDWANRRRGCMADDPE[Ahx]K(fluorescein)-NH2 (disulfide 10-21) [DX-319, Ac-AEGTGDDWQCVKDWANRRRGCMADDPE-X-K-NH2]?
A: Kd [5]: > 200 µM; Kd [7]: > 200 µM

B3: phage isolate displaying DWDCVTRWANRDQQCWGP (SEQ ID NO: 247) (peptide)
chain: DWDCVTRWANRDQQCWGP
modifications: not fully specified (bridges); cysteine pairing not given here
notes: Whole phage in the ELISA; not shown: protein III of M13 phage; the display peptide stands at its amino terminus
Q: Does B3 bind [9]?
A: Result: binds

B4: truncated peptide of DX-236, Ac-FWFCDRIAWYPQHLCEFLDPEGGGK-NH2 (peptide)
peptide: Ac-FWFCDRIAWYPQHLCEFLDPEGGGK(fluorescein)-NH2
modifications: not fully specified (bridges); printed as Ac-FWFCDRIAWYPQHLCEFLDPEGGGK-NH2; cysteine pairing not given here
Q: For B4, which “fold increase in KD against DX-236 (SEQ ID NO: 19)” value [10] is on record?
A: The value was about 4 fold.

Q: What about the Kd [11] of the same binder?
A: The Kd was 8.9 µM.

B5: truncated peptide of DX-236, Ac-AEGTGDFWFCDRIAWYPQHLCGGGK-NH2 (peptide)
peptide: Ac-AEGTGDFWFCDRIAWYPQHLCGGGK(fluorescein)-NH2
modifications: not fully specified (bridges); printed as Ac-AEGTGDFWFCDRIAWYPQHLCGGGK-NH2; cysteine pairing not given here
Q: Which results are given for B5?
A: fold increase in KD against DX-236 (SEQ ID NO: 19) [10]: ~4 fold; Kd [11]: 8.9 µM
